# Source: patent US20240425885
# Experiments:
# Assay in all cases: cleavage_in_vitro
# [1] = system: OMNI-110 (metagenomic, unknown); conditions: TXTL; PAM NNRTNCNN
# [2] = system: OMNI-119 (metagenomic, unknown); conditions: TXTL; PAM NNACNNNN
# [3] = system: T1, OMNI-120 (metagenomic, unknown); conditions: TXTL; PAM NRVACNNN
# T1 sequence: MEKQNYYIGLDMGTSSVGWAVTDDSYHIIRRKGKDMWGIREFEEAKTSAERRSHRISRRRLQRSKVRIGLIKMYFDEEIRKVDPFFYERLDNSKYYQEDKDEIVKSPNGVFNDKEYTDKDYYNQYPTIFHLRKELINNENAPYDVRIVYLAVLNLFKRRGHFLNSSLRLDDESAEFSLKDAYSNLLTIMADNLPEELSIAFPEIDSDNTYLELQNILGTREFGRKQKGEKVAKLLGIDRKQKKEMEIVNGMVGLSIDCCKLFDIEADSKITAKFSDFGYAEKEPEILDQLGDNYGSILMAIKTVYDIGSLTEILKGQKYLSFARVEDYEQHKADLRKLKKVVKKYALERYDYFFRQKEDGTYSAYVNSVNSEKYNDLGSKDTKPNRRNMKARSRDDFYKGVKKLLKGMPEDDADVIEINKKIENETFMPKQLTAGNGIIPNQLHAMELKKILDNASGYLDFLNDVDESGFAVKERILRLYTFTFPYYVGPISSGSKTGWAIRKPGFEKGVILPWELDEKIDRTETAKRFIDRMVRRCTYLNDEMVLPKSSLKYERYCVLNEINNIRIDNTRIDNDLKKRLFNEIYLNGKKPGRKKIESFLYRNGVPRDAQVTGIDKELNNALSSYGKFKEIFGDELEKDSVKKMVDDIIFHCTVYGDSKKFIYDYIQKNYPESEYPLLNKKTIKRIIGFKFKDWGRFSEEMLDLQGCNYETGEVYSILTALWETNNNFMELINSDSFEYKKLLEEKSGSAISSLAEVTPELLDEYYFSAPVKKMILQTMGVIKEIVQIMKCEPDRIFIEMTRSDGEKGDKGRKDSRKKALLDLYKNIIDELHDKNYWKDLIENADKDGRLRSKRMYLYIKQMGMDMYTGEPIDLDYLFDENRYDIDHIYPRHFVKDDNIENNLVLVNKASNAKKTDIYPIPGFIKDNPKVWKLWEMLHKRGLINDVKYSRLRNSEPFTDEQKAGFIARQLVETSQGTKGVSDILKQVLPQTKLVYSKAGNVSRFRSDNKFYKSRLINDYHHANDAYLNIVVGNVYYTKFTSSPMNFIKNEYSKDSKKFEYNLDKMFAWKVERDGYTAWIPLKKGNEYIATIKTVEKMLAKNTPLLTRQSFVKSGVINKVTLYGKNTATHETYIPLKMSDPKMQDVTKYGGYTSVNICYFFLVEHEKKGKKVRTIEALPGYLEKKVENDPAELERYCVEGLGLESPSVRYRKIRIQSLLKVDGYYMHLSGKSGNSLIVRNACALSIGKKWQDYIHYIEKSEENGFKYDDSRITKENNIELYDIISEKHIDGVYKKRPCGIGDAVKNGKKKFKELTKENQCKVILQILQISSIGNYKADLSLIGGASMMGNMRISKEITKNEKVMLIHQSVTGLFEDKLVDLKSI
# [4] = system: T2, OMNI-109 (metagenomic, unknown); conditions: TXTL; PAM NNAARCNN
# T2 sequence: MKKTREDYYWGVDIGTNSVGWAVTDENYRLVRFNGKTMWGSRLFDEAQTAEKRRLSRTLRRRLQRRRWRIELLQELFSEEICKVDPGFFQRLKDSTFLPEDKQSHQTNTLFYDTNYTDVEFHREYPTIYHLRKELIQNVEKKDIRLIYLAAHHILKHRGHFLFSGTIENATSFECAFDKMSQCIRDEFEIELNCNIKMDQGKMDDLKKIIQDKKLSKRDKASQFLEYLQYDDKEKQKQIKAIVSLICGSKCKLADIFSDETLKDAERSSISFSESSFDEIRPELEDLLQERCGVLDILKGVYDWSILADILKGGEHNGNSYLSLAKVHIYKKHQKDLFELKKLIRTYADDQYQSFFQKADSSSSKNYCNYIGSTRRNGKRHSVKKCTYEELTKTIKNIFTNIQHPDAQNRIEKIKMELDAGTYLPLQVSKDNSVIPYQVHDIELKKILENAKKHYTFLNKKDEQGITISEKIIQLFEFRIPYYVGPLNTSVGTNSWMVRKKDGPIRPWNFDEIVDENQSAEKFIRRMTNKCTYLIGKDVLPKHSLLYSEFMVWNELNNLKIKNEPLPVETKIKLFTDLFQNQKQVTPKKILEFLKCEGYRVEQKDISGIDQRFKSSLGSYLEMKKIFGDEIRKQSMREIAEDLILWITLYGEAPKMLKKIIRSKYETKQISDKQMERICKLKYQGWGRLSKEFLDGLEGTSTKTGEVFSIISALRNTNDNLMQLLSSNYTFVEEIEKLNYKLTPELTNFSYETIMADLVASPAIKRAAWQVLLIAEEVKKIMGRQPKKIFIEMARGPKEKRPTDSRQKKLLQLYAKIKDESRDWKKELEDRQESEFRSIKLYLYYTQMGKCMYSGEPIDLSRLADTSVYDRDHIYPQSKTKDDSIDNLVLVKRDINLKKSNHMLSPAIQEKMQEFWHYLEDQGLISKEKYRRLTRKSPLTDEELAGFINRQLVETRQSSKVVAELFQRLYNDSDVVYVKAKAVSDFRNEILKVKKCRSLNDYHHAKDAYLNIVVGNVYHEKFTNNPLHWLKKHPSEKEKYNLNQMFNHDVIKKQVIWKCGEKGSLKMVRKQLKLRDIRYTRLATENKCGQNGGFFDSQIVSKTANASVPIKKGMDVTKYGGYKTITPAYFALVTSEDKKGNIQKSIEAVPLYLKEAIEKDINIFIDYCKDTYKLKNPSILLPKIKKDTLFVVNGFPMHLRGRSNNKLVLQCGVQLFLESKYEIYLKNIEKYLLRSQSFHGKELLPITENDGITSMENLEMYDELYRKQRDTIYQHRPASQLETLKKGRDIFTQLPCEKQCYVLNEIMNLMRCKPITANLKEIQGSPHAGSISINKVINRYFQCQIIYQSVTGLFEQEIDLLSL
# [5] = system: T3, OMNI-114 (metagenomic, unknown); conditions: TXTL; PAM NRGGACNN
# T3 sequence: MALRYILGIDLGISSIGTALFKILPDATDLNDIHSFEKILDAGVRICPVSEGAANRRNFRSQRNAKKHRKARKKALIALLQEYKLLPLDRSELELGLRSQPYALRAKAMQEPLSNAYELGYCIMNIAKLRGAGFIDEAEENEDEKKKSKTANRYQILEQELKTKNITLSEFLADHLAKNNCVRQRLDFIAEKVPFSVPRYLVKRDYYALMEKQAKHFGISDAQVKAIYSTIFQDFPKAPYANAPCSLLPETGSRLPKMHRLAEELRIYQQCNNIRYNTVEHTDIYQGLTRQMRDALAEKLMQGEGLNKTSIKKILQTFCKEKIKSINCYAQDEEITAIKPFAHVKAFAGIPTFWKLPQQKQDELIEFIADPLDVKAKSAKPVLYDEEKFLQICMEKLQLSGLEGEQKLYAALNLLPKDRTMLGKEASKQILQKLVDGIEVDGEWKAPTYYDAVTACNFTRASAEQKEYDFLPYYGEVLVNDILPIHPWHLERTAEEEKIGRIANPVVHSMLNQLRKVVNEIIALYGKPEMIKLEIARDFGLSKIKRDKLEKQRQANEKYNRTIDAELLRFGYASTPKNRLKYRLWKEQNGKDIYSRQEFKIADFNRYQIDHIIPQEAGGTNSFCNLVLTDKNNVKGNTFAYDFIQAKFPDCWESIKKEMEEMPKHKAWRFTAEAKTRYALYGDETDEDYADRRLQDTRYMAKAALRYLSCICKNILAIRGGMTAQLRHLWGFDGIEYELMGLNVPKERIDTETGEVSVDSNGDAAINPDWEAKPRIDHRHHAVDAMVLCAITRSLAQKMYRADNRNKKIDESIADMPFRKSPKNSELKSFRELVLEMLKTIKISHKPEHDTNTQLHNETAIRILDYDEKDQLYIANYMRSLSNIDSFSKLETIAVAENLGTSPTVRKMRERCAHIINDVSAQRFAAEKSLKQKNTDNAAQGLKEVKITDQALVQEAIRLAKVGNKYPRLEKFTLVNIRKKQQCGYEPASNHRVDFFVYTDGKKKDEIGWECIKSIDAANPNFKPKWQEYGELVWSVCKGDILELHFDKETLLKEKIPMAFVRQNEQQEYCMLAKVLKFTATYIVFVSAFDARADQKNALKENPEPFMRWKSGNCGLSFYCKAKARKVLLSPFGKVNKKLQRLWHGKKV
# [6] = system: T4, OMNI-116 (metagenomic, unknown); conditions: TXTL; PAM NRGGACNN
# T4 sequence: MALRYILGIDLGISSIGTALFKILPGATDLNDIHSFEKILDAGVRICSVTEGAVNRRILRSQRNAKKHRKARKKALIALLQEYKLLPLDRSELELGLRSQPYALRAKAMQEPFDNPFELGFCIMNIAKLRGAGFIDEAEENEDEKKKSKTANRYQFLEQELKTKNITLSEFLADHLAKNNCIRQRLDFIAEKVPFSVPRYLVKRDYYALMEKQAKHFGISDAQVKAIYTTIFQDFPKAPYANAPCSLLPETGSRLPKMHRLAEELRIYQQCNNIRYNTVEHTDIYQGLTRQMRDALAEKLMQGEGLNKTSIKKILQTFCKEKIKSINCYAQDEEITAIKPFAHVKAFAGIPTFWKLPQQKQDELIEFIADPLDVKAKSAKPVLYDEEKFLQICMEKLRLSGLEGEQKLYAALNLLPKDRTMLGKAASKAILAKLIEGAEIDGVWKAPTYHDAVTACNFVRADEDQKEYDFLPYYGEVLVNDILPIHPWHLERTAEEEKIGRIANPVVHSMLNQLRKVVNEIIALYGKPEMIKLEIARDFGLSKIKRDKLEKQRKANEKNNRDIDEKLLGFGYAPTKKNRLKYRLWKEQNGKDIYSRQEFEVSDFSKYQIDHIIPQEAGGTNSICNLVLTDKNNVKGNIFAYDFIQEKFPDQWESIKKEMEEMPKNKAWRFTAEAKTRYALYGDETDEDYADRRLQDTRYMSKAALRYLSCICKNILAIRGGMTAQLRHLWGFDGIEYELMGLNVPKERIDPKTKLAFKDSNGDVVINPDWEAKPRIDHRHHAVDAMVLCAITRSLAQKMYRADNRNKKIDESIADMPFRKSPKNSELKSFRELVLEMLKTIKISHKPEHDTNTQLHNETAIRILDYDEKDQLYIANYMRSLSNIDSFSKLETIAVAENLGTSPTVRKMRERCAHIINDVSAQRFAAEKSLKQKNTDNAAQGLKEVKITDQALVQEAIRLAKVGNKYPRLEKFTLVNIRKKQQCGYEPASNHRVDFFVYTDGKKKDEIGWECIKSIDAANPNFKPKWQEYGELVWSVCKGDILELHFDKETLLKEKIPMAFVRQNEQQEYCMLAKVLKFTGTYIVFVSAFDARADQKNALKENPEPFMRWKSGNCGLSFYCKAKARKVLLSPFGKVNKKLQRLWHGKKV
# OMNI-119 (metagenomic, unknown), sequence (chain, as listed by the source): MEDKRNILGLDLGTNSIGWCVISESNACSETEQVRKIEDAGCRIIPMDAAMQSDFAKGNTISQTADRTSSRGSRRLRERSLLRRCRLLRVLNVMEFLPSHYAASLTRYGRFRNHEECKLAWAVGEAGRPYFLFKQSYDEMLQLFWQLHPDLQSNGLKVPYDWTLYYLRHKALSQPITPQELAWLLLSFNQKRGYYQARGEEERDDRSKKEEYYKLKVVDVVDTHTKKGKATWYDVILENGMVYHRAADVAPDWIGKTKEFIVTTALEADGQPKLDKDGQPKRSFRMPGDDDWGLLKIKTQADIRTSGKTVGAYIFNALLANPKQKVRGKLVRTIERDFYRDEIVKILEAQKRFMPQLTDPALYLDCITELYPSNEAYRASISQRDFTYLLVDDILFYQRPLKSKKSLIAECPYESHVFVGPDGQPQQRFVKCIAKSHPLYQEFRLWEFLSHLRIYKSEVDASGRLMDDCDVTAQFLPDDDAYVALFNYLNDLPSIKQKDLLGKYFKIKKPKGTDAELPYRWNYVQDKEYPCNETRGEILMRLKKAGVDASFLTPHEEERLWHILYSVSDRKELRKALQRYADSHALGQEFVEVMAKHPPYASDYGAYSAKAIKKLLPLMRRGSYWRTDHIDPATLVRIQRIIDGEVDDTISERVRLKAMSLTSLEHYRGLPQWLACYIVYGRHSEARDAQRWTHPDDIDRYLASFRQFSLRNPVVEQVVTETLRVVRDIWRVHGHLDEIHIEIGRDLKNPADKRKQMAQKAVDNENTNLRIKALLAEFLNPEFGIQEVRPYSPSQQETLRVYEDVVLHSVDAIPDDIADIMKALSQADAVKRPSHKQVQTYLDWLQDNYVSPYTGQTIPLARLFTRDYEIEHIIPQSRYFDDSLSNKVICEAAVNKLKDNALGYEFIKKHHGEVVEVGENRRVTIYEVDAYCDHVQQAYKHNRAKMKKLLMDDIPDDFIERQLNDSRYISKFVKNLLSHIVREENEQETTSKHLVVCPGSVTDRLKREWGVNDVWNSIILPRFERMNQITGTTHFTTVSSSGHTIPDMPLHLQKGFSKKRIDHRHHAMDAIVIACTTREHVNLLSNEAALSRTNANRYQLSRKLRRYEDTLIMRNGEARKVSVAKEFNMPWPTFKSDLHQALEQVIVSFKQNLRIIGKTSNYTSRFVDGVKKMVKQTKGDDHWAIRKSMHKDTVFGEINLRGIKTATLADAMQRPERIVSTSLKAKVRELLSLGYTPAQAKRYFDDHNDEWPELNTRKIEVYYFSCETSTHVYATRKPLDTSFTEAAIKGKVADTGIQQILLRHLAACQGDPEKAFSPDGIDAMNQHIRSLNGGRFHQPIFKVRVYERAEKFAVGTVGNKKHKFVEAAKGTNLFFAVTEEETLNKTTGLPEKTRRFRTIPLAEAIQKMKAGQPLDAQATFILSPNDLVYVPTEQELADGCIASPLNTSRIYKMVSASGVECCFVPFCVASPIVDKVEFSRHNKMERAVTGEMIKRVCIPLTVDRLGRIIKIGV
# OMNI-110 (metagenomic, unknown), sequence (chain, as listed by the source): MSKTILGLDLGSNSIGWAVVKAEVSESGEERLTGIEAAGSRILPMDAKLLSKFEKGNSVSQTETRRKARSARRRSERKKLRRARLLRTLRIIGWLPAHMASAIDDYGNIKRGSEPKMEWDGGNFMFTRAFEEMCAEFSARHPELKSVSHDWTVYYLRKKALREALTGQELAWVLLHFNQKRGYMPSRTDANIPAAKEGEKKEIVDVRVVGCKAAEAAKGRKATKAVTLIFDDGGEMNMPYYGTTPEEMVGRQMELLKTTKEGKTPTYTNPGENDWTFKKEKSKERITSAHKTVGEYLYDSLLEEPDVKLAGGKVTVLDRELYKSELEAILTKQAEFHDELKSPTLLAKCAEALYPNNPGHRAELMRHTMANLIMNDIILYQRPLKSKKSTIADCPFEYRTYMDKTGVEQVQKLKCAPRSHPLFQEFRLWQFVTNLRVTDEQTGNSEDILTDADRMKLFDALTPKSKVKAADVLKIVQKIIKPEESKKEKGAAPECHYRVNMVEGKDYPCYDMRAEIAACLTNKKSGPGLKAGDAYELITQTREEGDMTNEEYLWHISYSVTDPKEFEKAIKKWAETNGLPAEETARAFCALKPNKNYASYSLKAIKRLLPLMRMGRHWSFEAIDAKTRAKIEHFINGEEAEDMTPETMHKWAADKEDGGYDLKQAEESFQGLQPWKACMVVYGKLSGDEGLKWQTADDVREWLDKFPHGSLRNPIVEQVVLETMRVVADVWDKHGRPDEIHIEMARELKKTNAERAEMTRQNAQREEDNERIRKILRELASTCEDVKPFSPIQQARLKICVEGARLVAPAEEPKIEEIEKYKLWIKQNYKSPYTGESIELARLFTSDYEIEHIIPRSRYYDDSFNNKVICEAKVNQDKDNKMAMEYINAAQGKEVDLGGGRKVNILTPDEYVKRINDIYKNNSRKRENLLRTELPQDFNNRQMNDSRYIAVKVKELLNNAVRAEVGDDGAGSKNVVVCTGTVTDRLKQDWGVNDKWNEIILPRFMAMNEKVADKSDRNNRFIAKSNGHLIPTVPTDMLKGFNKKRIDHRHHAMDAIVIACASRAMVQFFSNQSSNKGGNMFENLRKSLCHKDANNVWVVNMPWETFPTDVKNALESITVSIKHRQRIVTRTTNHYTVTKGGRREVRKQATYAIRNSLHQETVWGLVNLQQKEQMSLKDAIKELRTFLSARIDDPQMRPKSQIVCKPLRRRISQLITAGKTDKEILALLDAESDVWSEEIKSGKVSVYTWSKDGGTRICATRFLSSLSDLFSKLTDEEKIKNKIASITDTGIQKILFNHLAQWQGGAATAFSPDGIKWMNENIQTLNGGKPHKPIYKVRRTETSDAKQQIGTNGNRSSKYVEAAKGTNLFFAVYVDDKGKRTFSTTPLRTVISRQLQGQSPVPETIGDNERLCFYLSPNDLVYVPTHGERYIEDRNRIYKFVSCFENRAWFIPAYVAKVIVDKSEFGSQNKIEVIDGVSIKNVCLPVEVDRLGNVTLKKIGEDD
sequence,measurement,setting,value
GGAAGAGCAGAGCCUUGGUCUCGUUGUGAUUCGCUUCCGAAAGCAAGCGAAUCACAAUAAGGAUUAUUCCGUUGUGAAAACAUUUAAGUCGGGCCUCCUUCGGUUGGCUCGGCUUUUUUU / GGAAGAGCAGAGCCTTGGTCTCNNNNNNNN / NNNNNNNNGAGACCAAGGCTCTGCTCTTCC [T2 sgRNA 18 V1 ; T2 protospacer + 8N PAM library (pbPOS T2)],activity (1-depletion score),[1],0.95
GGAAGAGCAGAGCCUUGGUCUCGUUGUGAUUUGCUGAGGAAACUAGCAAAUCACAAUAAGGAUUAUUCCGUUGUGAACACAUUAGGUCCCAACCCAUCGUCCUUUAACGGUGGGUUAUUUUUU / GGAAGAGCAGAGCCTTGGTCTCNNNNNNNN / NNNNNNNNGAGACCAAGGCTCTGCTCTTCC [T2 sgRNA 22 V1 ; T2 protospacer + 8N PAM library (pbPOS T2)],activity (1-depletion score),[2],0.97
GGAAGAGCAGAGCCUUGGUCUCGUUUGAGAGCCUUGUUAGAAAUAACAAGGCGAGUGCAAAUAAGGUUUAACCGAAUUCACCGUUUAUGGACCGCAUUGUGCGGAUUUUAAAAAAGACUUUCAAAGUCUUUUUU / GGAAGAGCAGAGCCTTGGTCTCNNNNNNNN / NNNNNNNNGAGACCAAGGCTCTGCTCTTCC [T2 sgRNA 23 V1 ; T2 protospacer + 8N PAM library (pbPOS T2)],activity (1-depletion score),[3],0.95
GGAAGAGCAGAGCCUUGGUCUCGUUUGAGAGUAGUGUAAGAAAUUACACUACAAGUUCAAAUAAAAAUUUAUUCUAAUCGCUCUUCGGAGCCUCCACAGGAGUGGAUUUAAGACUUGCUUCGGCGAGUCUUUUUU / GGAAGAGCAGAGCCTTGGTCTCNNNNNNNN / NNNNNNNNGAGACCAAGGCTCTGCTCTTCC [T2 sgRNA 17 V1 ; T2 protospacer + 8N PAM library (pbPOS T2)],activity (1-depletion score),[4],0.94
GGAAGAGCAGAGCCUUGGUCUCGUUUUACUUGCCUGUCGAAAGAUAGGCAAUAAAACAAAUAUAAUUUCUUUUGAAAUUAUAUGUAAAAUGUUUAAAGCCCUCCUUUUCAGGGGGGCUUUUUU / GGAAGAGCAGAGCCTTGGTCTCNNNNNNNN / NNNNNNNNGAGACCAAGGCTCTGCTCTTCC [T2 sgRNA 20 V1 ; T2 protospacer + 8N PAM library (pbPOS T2)],activity (1-depletion score),[5],0.96
same,activity (1-depletion score),[6],0.96
